Data from patent US20070036806A1.

These substances were tested against human GLP-1 receptor (human) (UniProt P43220) (assay: cell-based or functional assay).
Chain of human GLP-1 receptor (human) (P43220 24-463): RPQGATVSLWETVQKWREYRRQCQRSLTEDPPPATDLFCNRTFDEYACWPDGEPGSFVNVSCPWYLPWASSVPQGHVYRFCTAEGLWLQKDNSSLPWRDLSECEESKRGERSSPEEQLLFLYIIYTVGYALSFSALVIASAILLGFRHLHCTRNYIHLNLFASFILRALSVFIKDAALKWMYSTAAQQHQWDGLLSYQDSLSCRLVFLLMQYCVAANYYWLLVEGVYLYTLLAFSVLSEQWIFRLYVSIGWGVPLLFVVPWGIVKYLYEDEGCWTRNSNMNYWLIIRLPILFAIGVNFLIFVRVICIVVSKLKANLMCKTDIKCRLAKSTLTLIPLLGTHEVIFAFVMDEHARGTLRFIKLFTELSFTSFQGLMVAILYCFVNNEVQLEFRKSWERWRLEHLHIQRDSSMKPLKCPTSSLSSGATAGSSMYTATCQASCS

Chain of Gly^8-Glu^22-GLP-1(7-37)-1.5L-IgG4(S228P, F234A, L235A) (Fc fusion) (main): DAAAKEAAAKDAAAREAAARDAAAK
Chain of Gly^8-Glu^22-Gly^36-GLP-1(7-37)-2L-IgG4(S228P, F234A, L235A) (Fc fusion) (main): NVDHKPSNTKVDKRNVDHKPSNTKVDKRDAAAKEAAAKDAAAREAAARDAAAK

Activity (from EC50, relative to Val^8-GLP-1(7-37)OH); CRE-BLAM (beta-lactamase) reporter in HEK-293 cells expressing the human GLP-1 receptor | Activity (from EC50, relative to Val^8-GLP-1(7-37)OH, corrected for the 2-fold molarity of dimers); CRE-Luciferase reporter in HEK-293 cells stably expressing the human GLP-1 receptor | Substance
468% | 1120% | Gly^8-Glu^22-GLP-1(7-37)-1L-IgG4(S228P, F234A, L235A) (Fc fusion)
301% | 535% | Gly^8-Glu^22-GLP-1(7-37)-2L-IgG4(S228P, F234A, L235A) (Fc fusion)
– | 417% | Gly^8-Glu^22-Gly^36-GLP-1(7-37)-1L-IgG4(S228P, F234A, L235A) (Fc fusion)

The remaining lines, values behind:

Substance | Activity (from EC50, relative to Val^8-GLP-1(7-37)OH); CRE-BLAM (beta-lactamase) reporter in HEK-293 cells expressing the human GLP-1 receptor | Activity (from EC50, relative to Val^8-GLP-1(7-37)OH, corrected for the 2-fold molarity of dimers); CRE-Luciferase reporter in HEK-293 cells stably expressing the human GLP-1 receptor
Gly^8-Glu^22-GLP-1(7-37)-1.5L-IgG4(S228P, F234A, L235A) (Fc fusion) | 314% | 595%
Gly^8-Glu^22-Gly^36-GLP-1(7-37)-2L-IgG4(S228P, F234A, L235A) (Fc fusion) | 441% | 398%
